Test results from patent publication US20180171002A1 (BERG, published 2018).

T1: E.Coli-expressed FLNC (aa 1438-2128) (Homo sapiens (Human), UniProt Q14315 1438-2128)
T1 construct: also called Partial filamin C
T1 sequence: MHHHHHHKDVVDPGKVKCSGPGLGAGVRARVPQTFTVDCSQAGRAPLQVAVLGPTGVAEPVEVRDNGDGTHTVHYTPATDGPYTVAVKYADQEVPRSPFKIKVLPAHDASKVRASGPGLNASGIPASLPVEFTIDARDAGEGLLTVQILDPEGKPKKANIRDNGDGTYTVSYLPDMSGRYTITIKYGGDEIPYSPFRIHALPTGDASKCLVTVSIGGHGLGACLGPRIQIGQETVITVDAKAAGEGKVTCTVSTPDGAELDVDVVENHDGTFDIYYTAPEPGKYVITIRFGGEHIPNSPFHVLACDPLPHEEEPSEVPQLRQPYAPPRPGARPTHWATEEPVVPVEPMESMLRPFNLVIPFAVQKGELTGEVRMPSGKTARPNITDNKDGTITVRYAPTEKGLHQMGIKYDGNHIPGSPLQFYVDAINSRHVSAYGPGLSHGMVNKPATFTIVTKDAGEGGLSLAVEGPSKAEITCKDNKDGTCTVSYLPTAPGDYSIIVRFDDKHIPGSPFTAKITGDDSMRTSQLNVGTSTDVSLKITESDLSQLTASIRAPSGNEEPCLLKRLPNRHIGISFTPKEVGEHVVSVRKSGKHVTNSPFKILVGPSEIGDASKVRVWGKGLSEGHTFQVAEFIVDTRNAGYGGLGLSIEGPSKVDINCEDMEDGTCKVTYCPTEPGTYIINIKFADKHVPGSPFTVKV

T2: E.Coli-expressed partial FLNA (aa 1443-2131) (human, UniProt P21333 1443-2131)
T2 construct: also called FLNA Partial; partial FLNA protein
T2 sequence: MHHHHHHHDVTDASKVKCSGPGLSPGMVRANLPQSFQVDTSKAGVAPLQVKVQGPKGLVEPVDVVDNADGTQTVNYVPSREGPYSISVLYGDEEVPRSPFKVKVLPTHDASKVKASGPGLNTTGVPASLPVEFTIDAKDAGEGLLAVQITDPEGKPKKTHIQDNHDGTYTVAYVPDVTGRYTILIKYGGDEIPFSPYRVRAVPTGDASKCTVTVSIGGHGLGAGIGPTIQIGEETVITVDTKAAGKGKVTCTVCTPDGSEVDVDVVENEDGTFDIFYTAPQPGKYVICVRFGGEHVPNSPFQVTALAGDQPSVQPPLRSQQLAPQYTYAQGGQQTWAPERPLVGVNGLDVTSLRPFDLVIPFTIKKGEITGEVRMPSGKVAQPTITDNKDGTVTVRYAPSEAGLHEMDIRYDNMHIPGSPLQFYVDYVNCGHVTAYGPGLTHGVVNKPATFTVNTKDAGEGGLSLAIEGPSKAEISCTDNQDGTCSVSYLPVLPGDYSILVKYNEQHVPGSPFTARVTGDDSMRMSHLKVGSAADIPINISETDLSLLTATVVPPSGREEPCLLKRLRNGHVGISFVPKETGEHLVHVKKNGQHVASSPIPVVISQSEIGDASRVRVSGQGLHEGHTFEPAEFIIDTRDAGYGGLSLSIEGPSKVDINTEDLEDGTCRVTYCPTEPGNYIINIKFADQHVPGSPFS

B1: anti-FLNA murine monoclonal antibody 3F4 (antibody, IgG2b, V domains shown)
VH: EVQLQESGPGLAKPSQTLSLTCSVTGYSITSNYWNWIRKFPGNKLEYMGYISFSGSTYYNPSLKSRISITRDTSKNQYYLQLNSVTTEDTATYYCARWNYYAMDYWGQGTSVTVSS
VL: DFLLTQSPAILSVSPGERVSFSCRASQSIGTNIHWYQQRTNGSPRLLIKFASESISGIPSRFSGSGSGTDFTLTINSVESEDIADYYCQQSNSWPYTFGGGTKLEIK
notes: also called clone 3F4
B2: anti-FLNA murine monoclonal antibody 2C12 (antibody, IgG1, V domains shown)
VH: QVQLKQSGPGLVQPSQSLSITCTVSGFSLTNYGVHWVRQSPGKGLEWLGVIWRGGSTDYNAAFMSRLSITKDNSKSQVFFKMNSLQADDTAIYFCALRGNYVHYYLMDYWGQGTSVTVSS
VL: DIQVTQTPSSLSASLGDRVTISCRASQDISNYLNWYQQKPDGTVKLLIYYTSRLHSGVPSRFSGSGSGTDYSLTISNLDQEDIATYFCQQGNTLPPTFGGGTNLEIK
notes: also called clone 2C12
B3: anti-FLNA murine monoclonal antibody 6E3 (antibody, IgG1, V domains shown)
VH: QVQLQQSGAELMKPGASVKLSCKATGYTFTGYWIEWVKQRPGHGLEWIGEILPGNGSTNCNEKFKGKATFTATTSSNTAYMQLSSLTTEDSAIYYCTTVSYWGQGTTLTVSS
VL: DVVMTQTPLSLPVSLGDQASISCRSSQSLVHSNGNTYLHWYLQKPGQSPNLLIYKVSNRFSGVPDRFTGSGSGTDFTLKISRVEAEDLGVYFCSQSTHVPFTFGSGTKLEIK
notes: also called clone 6E3; mab 6E3

How the values were obtained:
[1] = target: E.Coli-expressed partial FLNA (aa 1443-2131) (human) (UniProt P21333); test: ELISA, positive control
[2] = target: T3, HEK293-expressed full length FLNA (UniProt: P21333) (human, UniProt P21333 2-2647); test: ELISA, positive control
T3 construct: Full length protein; also called full length human FLNA protein; Full length filamin A

[3] = target: E.Coli-expressed FLNC (aa 1438-2128) (Homo sapiens (Human)) (UniProt Q14315); test: ELISA, positive control
[4] = target: HEK293-expressed full length FLNB (Homo sapiens (Human)) (UniProt O75369); test: ELISA, negative control
[5] = target: E.Coli-expressed partial FLNA (aa 1443-2131) (human) (UniProt P21333); test: ELISA, negative control
[6] = target: T3, HEK293-expressed full length FLNA …; test: ELISA, negative control
[7] = target: E.Coli-expressed partial FLNB (aa 1416-2089) (Homo sapiens (Human)) (UniProt O75369); test: ELISA, negative control
[8] = target: E.Coli-expressed FLNC (aa 1438-2128) (Homo sapiens (Human)) (UniProt Q14315); test: ELISA, negative control
[9] = target: T1, E.Coli-expressed FLNC (aa 1438-2128); test: ELISA, hybridoma supernatant on protein
Procedure: (§1) Next, supernatants from clone 2C12, 3F4, and 6E3 were tested to bind the above proteins by ELISA. FLNA proteins were tested for specificity, while homologous proteins FLNB and FLNC from the same family were tested for cross-reactivity. 10% pooled normal human serum was also included for any unexpected non-specific binding.

[10] = target: T3, HEK293-expressed full length FLNA …; test: ELISA, hybridoma supernatant on protein
Procedure: as §1

[11] = target: T2, E.Coli-expressed partial FLNA (aa …); test: ELISA, hybridoma supernatant on protein
Procedure: as §1

[12] = target: T2, E.Coli-expressed partial FLNA (aa …); test: BLI (Octet), antibody on AMC anti-mIgG Fc capture sensor, FLNA Partial at 100 nM
Procedure: Kinetics studies with ForteBio Bio-Layer Interferometry (BLI) technology were carried out. BLI is a label-free technology for measuring biomolecular interactions. It is an optical analytical technique that analyzes the interference pattern of white light reflected from two surfaces: a layer of immobilized protein on the biosensor tip, and an internal reference layer. Any change in the number of molecules bound to the biosensor tip causes a shift in the interference pattern that can be measured in real-time. The Octet analysis results are shown as below in Table 3.

T3 sequence (P21333 other isoform, or with tags, fused parts or gaps limits assumed): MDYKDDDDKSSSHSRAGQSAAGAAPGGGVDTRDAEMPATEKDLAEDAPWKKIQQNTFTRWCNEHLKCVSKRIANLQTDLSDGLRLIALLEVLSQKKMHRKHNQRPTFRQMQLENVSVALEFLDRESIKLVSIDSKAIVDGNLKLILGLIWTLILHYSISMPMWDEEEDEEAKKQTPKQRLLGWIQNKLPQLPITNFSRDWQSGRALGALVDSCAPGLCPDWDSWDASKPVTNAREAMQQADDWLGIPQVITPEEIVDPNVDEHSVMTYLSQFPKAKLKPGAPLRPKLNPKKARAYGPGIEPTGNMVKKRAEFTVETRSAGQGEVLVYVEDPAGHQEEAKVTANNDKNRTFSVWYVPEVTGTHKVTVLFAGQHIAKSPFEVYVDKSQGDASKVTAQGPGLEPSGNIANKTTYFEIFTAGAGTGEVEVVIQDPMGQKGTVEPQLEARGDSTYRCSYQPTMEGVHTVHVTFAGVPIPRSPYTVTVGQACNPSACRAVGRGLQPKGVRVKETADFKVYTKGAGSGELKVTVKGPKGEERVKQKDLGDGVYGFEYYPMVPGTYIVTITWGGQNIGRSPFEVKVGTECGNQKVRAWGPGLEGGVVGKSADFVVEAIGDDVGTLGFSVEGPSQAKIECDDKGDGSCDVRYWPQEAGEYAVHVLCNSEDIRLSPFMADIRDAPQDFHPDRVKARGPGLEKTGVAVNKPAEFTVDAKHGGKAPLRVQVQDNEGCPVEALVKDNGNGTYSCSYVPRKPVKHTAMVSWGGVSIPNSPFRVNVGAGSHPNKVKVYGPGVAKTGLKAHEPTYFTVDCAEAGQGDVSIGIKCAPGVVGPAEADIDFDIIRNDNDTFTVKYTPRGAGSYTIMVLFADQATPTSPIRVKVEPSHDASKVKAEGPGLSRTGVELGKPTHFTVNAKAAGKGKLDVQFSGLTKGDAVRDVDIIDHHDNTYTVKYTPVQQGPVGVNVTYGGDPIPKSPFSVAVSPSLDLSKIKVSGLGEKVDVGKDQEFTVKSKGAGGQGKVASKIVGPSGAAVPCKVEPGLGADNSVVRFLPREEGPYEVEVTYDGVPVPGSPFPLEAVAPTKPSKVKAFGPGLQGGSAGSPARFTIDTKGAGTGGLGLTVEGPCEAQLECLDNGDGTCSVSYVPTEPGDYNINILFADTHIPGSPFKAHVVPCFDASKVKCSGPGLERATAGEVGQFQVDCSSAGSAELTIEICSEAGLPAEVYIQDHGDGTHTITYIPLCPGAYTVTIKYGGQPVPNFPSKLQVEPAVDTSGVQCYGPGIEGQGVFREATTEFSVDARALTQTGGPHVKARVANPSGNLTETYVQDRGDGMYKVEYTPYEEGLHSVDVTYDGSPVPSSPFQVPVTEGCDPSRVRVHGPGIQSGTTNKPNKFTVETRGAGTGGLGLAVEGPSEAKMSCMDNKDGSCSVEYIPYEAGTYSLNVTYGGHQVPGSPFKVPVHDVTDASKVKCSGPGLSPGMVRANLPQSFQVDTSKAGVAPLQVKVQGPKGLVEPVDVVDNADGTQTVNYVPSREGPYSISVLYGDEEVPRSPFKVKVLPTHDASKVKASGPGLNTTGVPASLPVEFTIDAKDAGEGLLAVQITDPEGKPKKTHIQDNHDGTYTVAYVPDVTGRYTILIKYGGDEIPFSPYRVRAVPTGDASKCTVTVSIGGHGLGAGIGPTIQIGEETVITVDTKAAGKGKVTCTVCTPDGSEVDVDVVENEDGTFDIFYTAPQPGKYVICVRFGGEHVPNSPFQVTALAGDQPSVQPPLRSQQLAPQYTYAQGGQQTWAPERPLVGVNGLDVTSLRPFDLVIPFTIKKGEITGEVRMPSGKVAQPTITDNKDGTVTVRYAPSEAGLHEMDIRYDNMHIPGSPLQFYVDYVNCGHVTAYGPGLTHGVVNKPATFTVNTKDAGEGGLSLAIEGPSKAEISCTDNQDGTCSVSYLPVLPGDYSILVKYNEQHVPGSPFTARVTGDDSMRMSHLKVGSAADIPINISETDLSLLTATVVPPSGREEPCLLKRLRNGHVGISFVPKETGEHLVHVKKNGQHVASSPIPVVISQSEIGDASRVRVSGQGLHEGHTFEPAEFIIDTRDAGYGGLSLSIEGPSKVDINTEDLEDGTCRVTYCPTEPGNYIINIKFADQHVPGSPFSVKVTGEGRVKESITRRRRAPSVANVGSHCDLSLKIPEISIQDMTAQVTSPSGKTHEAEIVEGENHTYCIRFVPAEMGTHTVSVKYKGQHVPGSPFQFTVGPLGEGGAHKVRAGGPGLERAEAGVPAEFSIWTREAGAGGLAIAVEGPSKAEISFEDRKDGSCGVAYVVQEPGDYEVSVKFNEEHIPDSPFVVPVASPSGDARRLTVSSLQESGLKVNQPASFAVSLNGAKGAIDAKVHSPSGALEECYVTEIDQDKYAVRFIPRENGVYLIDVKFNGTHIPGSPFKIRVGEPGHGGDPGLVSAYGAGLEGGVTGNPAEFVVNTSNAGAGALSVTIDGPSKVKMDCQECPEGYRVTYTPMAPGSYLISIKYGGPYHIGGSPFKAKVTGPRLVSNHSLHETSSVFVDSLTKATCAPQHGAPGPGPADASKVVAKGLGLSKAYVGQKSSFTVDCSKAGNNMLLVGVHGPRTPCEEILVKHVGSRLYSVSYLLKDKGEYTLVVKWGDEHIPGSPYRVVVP
Chain of E.Coli-expressed partial FLNB (aa 1416-2089) (Homo sapiens (Human)) (O75369 1416-2089, tags left off): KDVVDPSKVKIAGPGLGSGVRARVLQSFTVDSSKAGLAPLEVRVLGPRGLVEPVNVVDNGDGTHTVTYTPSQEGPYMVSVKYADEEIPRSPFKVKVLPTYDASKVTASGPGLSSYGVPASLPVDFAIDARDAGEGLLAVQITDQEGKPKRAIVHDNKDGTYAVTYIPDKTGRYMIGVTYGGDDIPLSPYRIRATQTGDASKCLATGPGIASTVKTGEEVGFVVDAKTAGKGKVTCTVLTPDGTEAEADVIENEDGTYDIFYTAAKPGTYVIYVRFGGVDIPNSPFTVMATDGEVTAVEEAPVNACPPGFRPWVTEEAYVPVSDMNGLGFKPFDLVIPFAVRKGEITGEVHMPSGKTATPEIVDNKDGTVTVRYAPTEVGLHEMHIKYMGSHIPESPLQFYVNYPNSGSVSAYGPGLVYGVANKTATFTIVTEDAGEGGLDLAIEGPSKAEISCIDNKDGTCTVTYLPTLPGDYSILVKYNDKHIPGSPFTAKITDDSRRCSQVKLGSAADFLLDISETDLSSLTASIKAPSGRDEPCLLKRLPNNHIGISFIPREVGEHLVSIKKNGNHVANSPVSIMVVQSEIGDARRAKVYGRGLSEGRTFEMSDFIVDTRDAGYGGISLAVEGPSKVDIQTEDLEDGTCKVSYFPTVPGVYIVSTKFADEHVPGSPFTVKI

Row | Molecule | ELISA test result (signal) [1] | ELISA test result (signal) [2] | ELISA test result (signal) [3] | ELISA test result (signal) [4] | ELISA test result (signal) [5] | ELISA test result (signal) [6] | ELISA test result (signal) [7] | ELISA test result (signal) [8] | ELISA test result (signal) [9] | ELISA test result (signal) [10] | ELISA test result (signal) [11] | Kd [12] [nM] | Response [12] | koff [12] [s⁻¹] | kon [12] [M⁻¹ s⁻¹]
1 | Pos ctl (positive control of the ELISA of Table 2) | 3.85 | 3.09 | 1.7 | – | – | – | – | – | – | – | – | – | – | – | –
2 | Neg ctl (negative control of the ELISA of Table 2) | – | – | – | 0.072 | 0.072 | 0.043 | 0.069 | 0.042 | – | – | – | – | – | – | –
3 | B1 | – | – | – | – | – | – | – | – | 0.042 | 2.35 | 3.04 | 0.999 | 0.283 | 0.000804 | 805000
4 | B2 | – | – | – | – | – | – | – | – | 0.044 | 1.87 | 3.32 | 4.82 | 0.222 | 0.000381 | 79000
5 | B3 | – | – | – | – | – | – | – | – | 0.041 | 2.2 | 2.57 | 4.02 | 0.33 | 0.000784 | 195000
